Here are results for 1 substance from article PMC8715119, “Second-generation non-hematopoietic erythropoietin-derived peptide for neuroprotection” (Redox Biology, 2021).

Data set [1] has as its system differentiated neuronal PC12 cells. The data set is described as follows: Cell viability (MTS) under H2O2-induced oxidative stress. The format is cell-based, rat. The conditions noted are these: H2O2 for 24 h; reEPO 0.5 IU/ml, ML1 1 ng/ml or ML1 analogs; n = 5; Fig. 4a. How it is done: PC12 cells (#CRL-1721, ATCC, USA), a rat pheochromocytoma cell line derived from the adrenal medulla (#CRL-1721, ATCC, USA), were seeded on a dish, which was coated by poly L-lysine (0.01%; Sigma Chemical Co., USA), and grown in RPMI 1640 medium (#11875093, Gibco, USA), supplemented with 10% heat-inactivated horse serum (#26050088, Gibco, USA), 5% fetal bovine serum (FBS) (#SH30919.03, Hyclone, USA), and 1% penicillin/streptomycin at 37°C with 5% CO2. For neuronal differentiation, PC12 cells were plated at a density of 1.25x10^3 cell/cm^2 into 96-well plates coated with collagen 1 (#354236, BD Biosciences, USA) and grown in RPMI 1640 medium supplemented with 50 ng/ml nerve growth factor (NGF) (BD Biosciences, USA) and 0.5% FBS for 10 days. The NGF-supplemented media was replaced with fresh media every 3 days during neuronal differentiation.
Cell viability was evaluated by 3-[(4,5-dimethylthiazol-2-yl)-5,3-carboxymethoxyphenyl]-2-(4-sulfophenyl)-2H tetrazolium, inner salt (MTS) reduction assay (CellTiter 96 Aqueous One Solution Cell Proliferation Assay, Promega, Madison, WI, USA). Briefly, differentiated neuronal-PC12 cells were treated with H2O2 (300 μM) with or without reEPO and peptides for 24 h. The PC12 cells were washed with PBS; 20 ul MTS solution was added to each well with 100 μl PBS, and the cells were incubated for 3 h at 37°C and 5% CO2. The intracellular soluble formazan produced by cellular reduction of the MTS was determined by recording the absorbance at 490 nm using a microplate reader (VersaMax, Molecular Devices, USA). Cell proliferation was also evaluated by the MTS assay. Undifferentiated PC12 cells were seeded into a 96-well plate (5x10^4 cells/well). The next day, the initial cell number was counted; after 48 h, under low FBS concentration (0.5%), with or without reEPO and peptides, cell number was measured by the MTS assay.

A further data set relates to EPOR. The data set is described as follows: Time-series immunoblot of EPOR protein level. It counts as cell-based, rat. The conditions noted are these: PC12 cells; 1 nM; normalized by β-Actin; n = 3. How it is done:
(§1) PC12 or HT-22 cells were lysed in 100 mM Tris-Cl (pH 6.8) with 4% SDS. The lysates were loaded onto sodium dodecyl sulfate-polyacrylamide gel electrophoresis (SDS-PAGE) (8–10%), and the proteins were transferred onto the nitrocellulose membrane. The membrane was blocked with 0.1% TBST and 5% non-fat dry milk at 25°C for 30 min. Primary antibodies were diluted in 0.1% TBST and 3% bovine serum albumin (BSA). The primary antibodies included anti-pJAK2 (#3776, Cell Signaling Technology, USA), anti-JAK2 (#3230, Cell Signaling Technology, USA), anti-pSTAT5 (#9351, Cell Signaling Technology, USA), anti-STAT5 ([…], Cell Signaling Technology, USA), anti-pAKT (#9271, Cell Signaling Technology, USA), anti-AKT (#9272, Cell Signaling Technology, USA), anti-pERK (#9101, Cell Signaling Technology, USA) anti-ERK (#9102, Cell Signaling Technology, USA), anti-EPOR (#sc-365662, Santa Cruz Biotechnology, USA), anti-β-Actin (Santa Cruz Biotechnology, USA), anti-Bax (Santa Cruz Biotechnology, USA), anti-cleaved Casp3 (Cell Signaling Technology, USA), and anti-cleaved Parp1 (Cell Signaling Technology, USA).
A general note: In western blotting, separated proteins are transferred to a membrane and probed.

The subject of another data set is HT-22 cells. The data set is described as follows: TUNEL assay after hypoxia and re-oxygenation. It counts as cell-based, mouse. The following applies: hypoxia 18 h, re-oxygenation 3 h; reEPO 0.5 IU/ml, ML1-h3 1 ng/ml; n = 5. How it is done: HT-22 cells (kindly provided by Prof. Gil-Saeng Jeong in Keimyung University), an immortalized mouse hippocampal cell line, were cultured at 37°C and 5% CO2 in Dulbecco's modified eagle medium (DMEM, Invitrogen, USA) supplemented with 10% FBS and 1% penicillin/streptomycin at 37°C and 5% CO2.
The HT-22 cells were seeded onto 96-well or 6-well plates. The next day, HT-22 cells were placed inside a sealed air-tight container consisting of an anaeropack (Mitsubishi Gas Company, Tokyo, Japan), which can induce a hypoxic atmosphere by absorbing oxygen and generating carbon dioxide. The cells were maintained in the hypoxic condition at 37°C for 18 h and re-oxygenated for 3 h at 37°C and 5% CO2. Subsequently, the cells were treated with reEPO or the peptides for 19 h before viability analysis.
We fixed the cells with 4% paraformaldehyde in PBS on a slide at 25°C, washed them with PBS, and then treated them with 3% H2O2 in methanol for 10 min. After washing with PBS, we treated the cells with 0.1% sodium citrate in 0.1% Triton X-100 on sample slides for 2 min on ice and washed again with PBS. Subsequently, we treated the cells with the TUNEL reaction mixture for 60 min at 37°C in the dark. After washing thrice with PBS, 50 μl of TUNEL peroxidase (POD) was added to the slides for 30 min at 37°C in the dark. […]

The test system of another data set is cleaved Caspase 3. Briefly: Immunoblot of cleaved Caspase 3 after hypoxia and re-oxygenation. It counts as cell-based, mouse. The conditions noted are these: HT-22 cells; reEPO 0.5 IU/ml, ML1-h3 1 ng/ml; normalized by β-Actin; n = 6. How it is done:
as §1
The HT-22 cells were seeded onto 96-well or 6-well plates. The next day, HT-22 cells were placed inside a sealed air-tight container consisting of an anaeropack (Mitsubishi Gas Company, Tokyo, Japan), which can induce a hypoxic atmosphere by absorbing oxygen and generating carbon dioxide. […]

A further data set deals with male mice (C57BL/6 N). The data set is described as follows: Measurement of the hematopoietic effect after repeated subcutaneous injection. The format is in vivo. The conditions noted are these: mouse, three times a week for four weeks, reEPO 150 IU/kg, ML1-h3 0.2 mg/kg. The method, then: The protocol of this experiment was approved by the Animal Care and Use Committee of the DGIST (DGIST-IACUC-21090804-0000). After two weeks for quarantine and acclimatization, male mice (C57BL/6 N, Koatech, Korea) were subcutaneously injected with vehicle (n = 6), reEPO (n = 6, 150 IU/kg), or ML1-h3 (n = 6, 0.2 mg/kg) three times a week for four weeks. After three days of final injection, they were anesthetized by injection of zoletil (50 mg/kg), and their blood was gathered from posterior vena cava into an EDTA-coated tube (#367863, BD Vacutainer, USA) using a syringe. The blood samples were analyzed by an automatic hematology analyzer (#ADIVIA 2120i, SIEMENS Healthineers, Germany) in DGMIF (Korea).

Regarding “reEPO: Recombinant human EPO (Epoetin-α, CJ HealthCare Corporation)”, the “Cell death under H2O2-induced oxidative stress (cell viability)” value in data set [1] was “significantly suppressed the cell death”. Also, in the data set with EPOR, the “Level of EPOR protein over time” value was “gradually decreased by reEPO for 15–45 min, and subsequently, it rapidly recovered to the basal level at 60 min”. For the same substance, the “TUNEL-positive cells under H/R” value in the data set with HT-22 cells is given as “dramatically decreased the TUNEL-positive cells”. Also, in the data set with cleaved Caspase 3, the “Level of cleaved Caspase 3 under H/R” value is “efficiently reduced the levels of Bax, cleaved Caspase 3”. For the same substance, in the data set with male mice (C57BL/6 N) (n = 6), the Body weight entry is on record as “No significant difference”. In addition, in the data set with male mice (C57BL/6 N) (n = 6, versus vehicle), the “Cell number of platelet” value is “did not significantly affect”, the Content of haemoglobin entry was “dramatically increased”, the Hematocrit level result is reported as “dramatically increased” and the Number of erythrocytes result is given as “dramatically increased”. Further, in the data set with male mice (C57BL/6 N) (n = 6, versus vehicle), the “Number of granulocytes, including neutrophils and eosinophils” value is given as “considerably decreased”; the Number of lymphocytes result was “did not significantly affect”; the Number of monocytes entry is given as “did not significantly affect”; the Number of reticulocytes result is “dramatically increased”. Further, the “Total number of white blood cells” value in the data set on male mice (C57BL/6 N) (n = 6, versus vehicle) is given as “did not significantly affect”.
